Here are results for one substance from US20210138058A1.

For the assay, the target named is human TLR5 (HEK-Blue hTLR5 reporter cells) (human) (UniProt O60602). In words: cell-based or functional assay.
UniProt O60602, sequence (O60602 21-858): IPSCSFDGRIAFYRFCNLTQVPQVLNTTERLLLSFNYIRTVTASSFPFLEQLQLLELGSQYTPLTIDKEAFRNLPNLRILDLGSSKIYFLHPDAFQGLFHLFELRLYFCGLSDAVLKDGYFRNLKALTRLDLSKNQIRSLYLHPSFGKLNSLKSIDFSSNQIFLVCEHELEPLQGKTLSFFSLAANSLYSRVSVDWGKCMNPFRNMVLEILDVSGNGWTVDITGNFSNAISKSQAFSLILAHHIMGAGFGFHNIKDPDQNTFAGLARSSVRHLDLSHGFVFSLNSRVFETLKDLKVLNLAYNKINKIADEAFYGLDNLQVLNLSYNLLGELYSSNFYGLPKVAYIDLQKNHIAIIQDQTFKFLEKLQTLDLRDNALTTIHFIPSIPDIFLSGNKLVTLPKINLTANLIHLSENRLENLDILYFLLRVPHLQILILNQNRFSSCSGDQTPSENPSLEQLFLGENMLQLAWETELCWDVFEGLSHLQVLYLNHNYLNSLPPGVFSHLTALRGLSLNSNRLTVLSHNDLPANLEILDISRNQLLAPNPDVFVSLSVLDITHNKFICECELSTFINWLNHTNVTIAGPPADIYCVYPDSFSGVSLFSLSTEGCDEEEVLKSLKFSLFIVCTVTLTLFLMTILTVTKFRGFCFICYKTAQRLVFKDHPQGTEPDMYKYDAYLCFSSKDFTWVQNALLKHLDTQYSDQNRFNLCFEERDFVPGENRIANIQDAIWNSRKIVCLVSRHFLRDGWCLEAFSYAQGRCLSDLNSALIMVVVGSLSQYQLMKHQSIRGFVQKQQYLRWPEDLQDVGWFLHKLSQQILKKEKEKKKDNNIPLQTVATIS

In turn, “Recombinant purified flagellin protein FlaAMRx0518 (Enterococcus gallinarum MRx0518 flagellin, N-terminal 6xHis tag) (ligand)” gave a potency of TLR5 response against FlaADSM100110 (HEK-Blue hTLR5 SEAP reporter) (fold against FlaADSM100110) of 5.
